Experimental findings from PMC9273970, “Mambalgin-2 Inhibits Lung Adenocarcinoma Growth and Migration by Selective Interaction With ASIC1/α-ENaC/γ-ENaC Heterotrimer” (Frontiers in Oncology, 2022) are described below.

Assay [1] addresses human heteromeric ASIC1a/α-ENAC/γ-ENAC channel (human, UniProt P78348 1-528; P37088 1-669; P51170 1-649). The assay can be described thus: cell-based or functional assay.
Assay [2] has as its target ASIC1a subunit (acid-sensing ion channel 1a) (human (endogenous in A549)).

human heteromeric ASIC1a/α-ENAC/γ-ENAC channel, sequence (P78348 whole entry, chain 1 of 3): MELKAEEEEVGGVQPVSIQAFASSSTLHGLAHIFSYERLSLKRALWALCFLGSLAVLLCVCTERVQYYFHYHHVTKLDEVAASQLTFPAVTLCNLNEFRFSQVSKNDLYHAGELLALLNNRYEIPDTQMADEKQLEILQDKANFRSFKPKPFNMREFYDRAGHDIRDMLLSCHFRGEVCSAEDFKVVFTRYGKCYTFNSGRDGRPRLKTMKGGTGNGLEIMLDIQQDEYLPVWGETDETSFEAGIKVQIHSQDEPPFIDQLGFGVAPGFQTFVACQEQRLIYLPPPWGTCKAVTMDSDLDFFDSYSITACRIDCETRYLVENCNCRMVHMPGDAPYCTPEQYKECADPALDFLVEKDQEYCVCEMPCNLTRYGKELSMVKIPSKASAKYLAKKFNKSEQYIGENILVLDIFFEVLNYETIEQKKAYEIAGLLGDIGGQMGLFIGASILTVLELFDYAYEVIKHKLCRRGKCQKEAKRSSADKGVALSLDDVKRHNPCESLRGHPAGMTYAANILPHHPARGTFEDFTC
human heteromeric ASIC1a/α-ENAC/γ-ENAC channel, sequence (P37088 whole entry, chain 2 of 3): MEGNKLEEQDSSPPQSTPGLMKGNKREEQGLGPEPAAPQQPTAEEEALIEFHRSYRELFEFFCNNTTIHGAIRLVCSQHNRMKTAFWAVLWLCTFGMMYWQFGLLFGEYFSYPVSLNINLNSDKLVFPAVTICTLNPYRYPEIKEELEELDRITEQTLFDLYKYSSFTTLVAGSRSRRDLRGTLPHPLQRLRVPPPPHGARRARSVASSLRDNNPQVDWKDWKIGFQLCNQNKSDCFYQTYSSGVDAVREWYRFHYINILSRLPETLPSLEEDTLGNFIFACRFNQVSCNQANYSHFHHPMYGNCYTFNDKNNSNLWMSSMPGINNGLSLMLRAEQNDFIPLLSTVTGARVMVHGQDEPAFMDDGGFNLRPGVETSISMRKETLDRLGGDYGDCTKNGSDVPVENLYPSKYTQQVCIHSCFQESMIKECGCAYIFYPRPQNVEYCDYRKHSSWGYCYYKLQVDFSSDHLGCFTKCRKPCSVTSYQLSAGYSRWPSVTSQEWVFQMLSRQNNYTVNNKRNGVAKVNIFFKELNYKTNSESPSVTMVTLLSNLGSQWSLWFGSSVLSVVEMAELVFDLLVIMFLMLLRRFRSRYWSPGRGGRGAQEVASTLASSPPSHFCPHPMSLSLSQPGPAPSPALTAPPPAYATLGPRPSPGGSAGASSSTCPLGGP
human heteromeric ASIC1a/α-ENAC/γ-ENAC channel, sequence (P51170 whole entry, chain 3 of 3): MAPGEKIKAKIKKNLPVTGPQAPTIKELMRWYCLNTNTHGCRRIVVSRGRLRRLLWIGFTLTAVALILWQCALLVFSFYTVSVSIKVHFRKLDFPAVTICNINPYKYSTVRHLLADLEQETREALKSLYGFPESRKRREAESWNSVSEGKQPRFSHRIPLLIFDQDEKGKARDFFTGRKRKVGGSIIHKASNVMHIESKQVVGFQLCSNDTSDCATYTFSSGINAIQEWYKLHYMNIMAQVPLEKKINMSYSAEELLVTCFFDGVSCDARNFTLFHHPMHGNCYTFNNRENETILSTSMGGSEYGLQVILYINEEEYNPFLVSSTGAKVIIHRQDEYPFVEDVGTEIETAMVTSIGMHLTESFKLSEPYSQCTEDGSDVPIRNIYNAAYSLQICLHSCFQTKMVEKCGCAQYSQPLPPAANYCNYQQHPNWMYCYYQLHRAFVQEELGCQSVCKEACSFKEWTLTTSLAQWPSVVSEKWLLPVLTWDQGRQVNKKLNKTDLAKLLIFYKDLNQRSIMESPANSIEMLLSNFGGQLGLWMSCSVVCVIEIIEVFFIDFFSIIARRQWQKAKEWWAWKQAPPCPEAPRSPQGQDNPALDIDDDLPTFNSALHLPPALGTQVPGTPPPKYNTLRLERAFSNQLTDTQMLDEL
ASIC1a subunit (acid-sensing ion channel 1a) (human (endogenous in A549)), sequence (P78348 whole entry): as the sequence (P78348 whole entry, chain 1 of 3) above

B1: recombinant mambalgin-2 from Dendroaspis polylepis (natural protein)
chain: LKCFQHGKVVTCHRDMKFCYHNTGMPFRNLKLILQGCSSSCSETENNKCCSTDRCNK
With B1, the “inhibition of currents evoked by a pH drop from 7.4 to 5.0 in X. laevis oocytes expressing hASIC1a/α-ENAC/γ-ENAC (two-electrode voltage clamp, mambalgin-2 0–10 μM, 15 s pre-incubation), IC50” value in assay [1] was 79 nM. The same molecule displayed an inhibition of currents evoked by a pH drop from 7.4 to 5.0 in X. laevis oocytes expressing homomeric hASIC1a (two-electrode voltage clamp, mambalgin-2 0–10 μM, 15 s pre-incubation), IC50 in assay [2] of 0.59 μM.
